# T1: Biotinyl-EACA-EACA-Gly-Leu-Met-Val-Gly-Gly-Val-Val-Arg-OH
# T1 chain: GLMVGGVVR
# Molecular target: T1, Biotinyl-EACA-EACA-Gly-Leu-Met-Val-Gly-G …
Protein,Km (37° C.),Km (room temperature),Km
human soluble carboxypeptidase M (protein) LDFNYHRQEGMEAFLKTVAQNYSSVTHLHSIGKSVKGRNLWVLVVGRFPKEHRIGIPEFKYVANMHGDETVGRELLLHLIDYLVTSDGKDPEITNLINSTRIHIMPSMNPDGFEAVKKPDCYYSIGRENYNQYDLNRNFPDAFEYNNVSRQPETVAVMKWLKTETFVLSANLHGGALVASYPFDNGVQATGALYSRSLTPDDDVFQYLAHTYASRNPNMKKGDECKNKMNFPNGVTNGYSWYPLQGGMQDYNYIWAQCFEITLELSCCKYPREEKLPSFWNNNKASLIEYIKQVHLGVKGQVFDQNGNPLPNVIVEVQDRKHICPYRTNKYGEYYLLLLPGSYIINVTVPGHDPHITKVIIPEKSQNFSALKKDILLPFQGQLDSIPVSNPSCPMIPLYRNLPDHS,the value was much higher (>50 µM) at 37 °C,Km for CPM was 38 µM at room temperature,
human carboxypeptidase B (protein) ATGHSYEKYNKWETIEAWTQQVATENPALISRSVIGTTFEGRAIYLLKVGKAGQNKPAIFMDCGFHAREWISPAFCQWFVREAVRTYGREIQVTELLDKLDFYVLPVLNIDGYIYTWTKSRFWRKTRSTHTGSSCIGTDPNRNFDAGWCEIGASRNPCDETYCGPAAESEKETKALADFIRNKLSSIKAYLTIHSYSQMMIYPYSYAYKLGENNAELNALAKATVKELASLHGTKYTYGPGATTIYPAAGGSDDWAYDQGIRYSFTFELRDTGRYGFLLPESQIRATCEETFLAIKYVASYVLEHLY,,,"Values of Km for TAFIa and CPB were 8 and 12 µM, respectively"
activated thrombin-activatable fibrinolysis inhibitor (human TAFIa) (protein) ASASYYEQYHSLNEIYSWIEFITERHPDMLTKIHIGSSFEKYPLYVLKVSGKEQAAKNAIWIDCGIHAREWISPAFCLWFIGHITQFYGIIGQYTNLLRLVDFYVMPVVNVDGYDYSWKKNRMWRKNRSFYANNHCIGTDLNRNFASKHWCEEGASSSSCSETYCGLYPESEPEVKAVASFLRRNINQIKAYISMHSYSQHIVFPYSYTRSKSKDHEELSLVASEAVRAIEKISKNTRYTHGHGSETLYLAPGGGDDWIYDLGIKYSFTIELRDTGTYGFLLPERYIKPTCREAFAAVSKIAWHVIRNV,,,"Values of Km for TAFIa and CPB were 8 and 12 µM, respectively"

# From US7176008
